Earlier results on 17 sequences are cited in PMC12990809.

Assay in all cases: pulldown
Common to all, as to conditions: 20 nM protein, 1.5 uM RNA pool; 20 mM HEPES pH 7.8, 70 mM KCl, 10 mM NaCl, 10% glycerol, 2 mM DTT, 0.1 ug/uL BSA; 30 min, 4 C (protocol of this paper; not …); cited from earlier work

One data set deals with T1, rbm4.3 (Danio rerio) (UniProt A0ACM8Q3W8).
T1 sequence: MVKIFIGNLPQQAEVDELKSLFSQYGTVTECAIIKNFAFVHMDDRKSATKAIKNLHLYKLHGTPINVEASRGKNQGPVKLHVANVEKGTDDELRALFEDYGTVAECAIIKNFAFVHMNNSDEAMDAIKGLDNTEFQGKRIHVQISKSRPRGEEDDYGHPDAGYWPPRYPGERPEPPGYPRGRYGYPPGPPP

Data set [1] has as its target T2, PFF0320c (Plasmodium falciparum) (UniProt C6KSR3).
T2 sequence: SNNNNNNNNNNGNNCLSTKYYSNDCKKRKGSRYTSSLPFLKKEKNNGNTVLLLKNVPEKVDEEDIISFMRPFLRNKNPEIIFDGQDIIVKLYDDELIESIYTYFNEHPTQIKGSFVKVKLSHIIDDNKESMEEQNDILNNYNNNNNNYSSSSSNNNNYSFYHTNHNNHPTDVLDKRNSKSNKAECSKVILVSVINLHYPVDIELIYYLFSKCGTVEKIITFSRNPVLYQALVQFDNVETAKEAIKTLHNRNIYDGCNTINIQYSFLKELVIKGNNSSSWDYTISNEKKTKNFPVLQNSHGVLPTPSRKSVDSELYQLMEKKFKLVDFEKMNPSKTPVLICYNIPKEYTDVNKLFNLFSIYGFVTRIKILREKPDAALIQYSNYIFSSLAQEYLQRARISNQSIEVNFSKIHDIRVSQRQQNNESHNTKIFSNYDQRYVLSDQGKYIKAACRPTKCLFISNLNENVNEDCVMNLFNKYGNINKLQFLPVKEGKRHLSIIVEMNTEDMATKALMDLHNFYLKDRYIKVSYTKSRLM

Data set [2] concerns the target hnrnpabb (Tetraodon nigroviridis) (UniProt Q4SDS6).
The target of data set [3] is T3, MAL13P1.35 (Plasmodium falciparum) (UniProt C0H5A4).
T3 sequence: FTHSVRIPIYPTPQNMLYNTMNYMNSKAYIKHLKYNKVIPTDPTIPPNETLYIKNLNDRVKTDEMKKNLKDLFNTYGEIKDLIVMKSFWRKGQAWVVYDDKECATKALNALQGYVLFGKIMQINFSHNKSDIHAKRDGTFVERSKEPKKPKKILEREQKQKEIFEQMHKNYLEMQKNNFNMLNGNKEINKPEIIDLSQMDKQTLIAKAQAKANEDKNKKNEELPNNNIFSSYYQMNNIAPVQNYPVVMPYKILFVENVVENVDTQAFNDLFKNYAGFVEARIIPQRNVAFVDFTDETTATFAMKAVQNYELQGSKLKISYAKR

The target of data set [4] is T4, PF10_0214 (Plasmodium falciparum) (UniProt Q8IJI3).
T4 sequence: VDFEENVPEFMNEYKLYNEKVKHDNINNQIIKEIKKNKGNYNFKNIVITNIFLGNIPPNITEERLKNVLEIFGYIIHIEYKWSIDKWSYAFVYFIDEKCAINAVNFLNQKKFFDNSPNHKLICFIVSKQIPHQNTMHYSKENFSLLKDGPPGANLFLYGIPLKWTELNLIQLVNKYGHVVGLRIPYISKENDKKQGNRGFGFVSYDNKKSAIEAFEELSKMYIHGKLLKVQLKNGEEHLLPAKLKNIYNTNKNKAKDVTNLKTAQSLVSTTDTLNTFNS

Data set [5] has as its target T5, Smp_067420 (Schistosoma mansoni) (UniProt G4LZ80).
T5 sequence: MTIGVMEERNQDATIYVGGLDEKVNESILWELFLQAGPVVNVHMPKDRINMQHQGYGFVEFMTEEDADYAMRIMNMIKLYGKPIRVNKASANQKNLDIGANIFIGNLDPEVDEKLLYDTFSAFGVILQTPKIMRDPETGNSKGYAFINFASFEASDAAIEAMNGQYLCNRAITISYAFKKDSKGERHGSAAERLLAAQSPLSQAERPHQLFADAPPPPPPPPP

In a further data set the target is Pcbp1 (Mus musculus) (UniProt P60335).
Chain of Pcbp1 (Mus musculus) (P60335 whole entry): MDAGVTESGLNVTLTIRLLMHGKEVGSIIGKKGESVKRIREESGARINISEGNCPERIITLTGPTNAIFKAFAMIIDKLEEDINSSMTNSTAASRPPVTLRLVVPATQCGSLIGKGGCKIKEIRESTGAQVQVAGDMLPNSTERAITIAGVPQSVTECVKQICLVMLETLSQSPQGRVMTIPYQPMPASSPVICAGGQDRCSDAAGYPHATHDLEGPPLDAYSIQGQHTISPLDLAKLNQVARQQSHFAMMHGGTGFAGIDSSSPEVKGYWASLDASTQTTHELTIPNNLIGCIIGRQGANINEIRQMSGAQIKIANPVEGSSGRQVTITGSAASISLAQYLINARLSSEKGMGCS
Another data set deals with pcbp2 (Danio rerio) (UniProt A0A8M1PCB6).
Chain of pcbp2 (Danio rerio) (A0A8M1PCB6 entry or part of it): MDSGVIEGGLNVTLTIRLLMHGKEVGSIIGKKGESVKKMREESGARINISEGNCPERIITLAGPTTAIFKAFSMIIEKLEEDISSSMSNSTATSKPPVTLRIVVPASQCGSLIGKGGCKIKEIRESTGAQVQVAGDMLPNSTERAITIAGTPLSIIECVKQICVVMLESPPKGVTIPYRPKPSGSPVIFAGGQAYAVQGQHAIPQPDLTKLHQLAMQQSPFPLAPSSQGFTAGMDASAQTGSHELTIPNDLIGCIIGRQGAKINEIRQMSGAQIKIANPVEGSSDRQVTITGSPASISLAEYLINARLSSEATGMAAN
For data set [6], the target named is T6, Tb927.3.3670 (Trypanosoma brucei) (UniProt Q57WA3).
T6 sequence: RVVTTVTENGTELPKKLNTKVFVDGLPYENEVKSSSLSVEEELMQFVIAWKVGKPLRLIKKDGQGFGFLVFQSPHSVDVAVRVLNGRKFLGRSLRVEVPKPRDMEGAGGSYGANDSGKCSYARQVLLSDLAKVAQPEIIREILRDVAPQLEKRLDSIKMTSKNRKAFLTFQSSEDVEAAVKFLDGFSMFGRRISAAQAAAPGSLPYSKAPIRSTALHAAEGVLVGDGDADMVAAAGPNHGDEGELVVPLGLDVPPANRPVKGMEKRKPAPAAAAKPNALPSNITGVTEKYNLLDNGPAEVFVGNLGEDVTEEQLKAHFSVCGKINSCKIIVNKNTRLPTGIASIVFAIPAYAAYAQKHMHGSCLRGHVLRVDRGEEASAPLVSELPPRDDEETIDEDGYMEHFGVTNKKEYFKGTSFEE

The target in the next data set is T7, Rbm45 (Mus musculus) (UniProt Q8BHN5).
T7 sequence: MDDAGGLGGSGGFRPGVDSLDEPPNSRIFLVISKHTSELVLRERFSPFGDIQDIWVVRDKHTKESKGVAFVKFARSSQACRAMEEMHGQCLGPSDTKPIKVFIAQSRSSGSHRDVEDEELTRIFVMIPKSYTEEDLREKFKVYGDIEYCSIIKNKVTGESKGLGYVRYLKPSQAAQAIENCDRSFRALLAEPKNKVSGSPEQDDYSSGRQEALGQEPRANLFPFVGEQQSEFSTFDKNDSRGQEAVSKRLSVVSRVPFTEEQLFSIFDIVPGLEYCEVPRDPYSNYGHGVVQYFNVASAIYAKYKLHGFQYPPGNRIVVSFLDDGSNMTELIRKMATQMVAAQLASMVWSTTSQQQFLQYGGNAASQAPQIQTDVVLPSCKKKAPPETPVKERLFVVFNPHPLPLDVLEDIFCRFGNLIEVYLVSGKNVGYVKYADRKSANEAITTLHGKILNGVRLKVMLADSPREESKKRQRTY

Data set [7] addresses T8, estExt_gwp_gw1.C_700168 (Physcomitrella patens) (UniProt A0A2K1JQP1).
T8 sequence: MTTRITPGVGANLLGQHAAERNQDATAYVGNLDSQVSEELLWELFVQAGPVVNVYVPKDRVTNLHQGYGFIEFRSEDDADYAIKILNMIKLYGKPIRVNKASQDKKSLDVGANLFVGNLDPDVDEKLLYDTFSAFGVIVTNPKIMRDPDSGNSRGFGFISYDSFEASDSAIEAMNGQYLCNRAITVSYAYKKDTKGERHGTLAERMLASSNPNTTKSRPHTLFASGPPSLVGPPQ

For data set [8], the target named is T9, NCU02404 (Neurospora crassa) (UniProt V5ILJ4).
T9 sequence: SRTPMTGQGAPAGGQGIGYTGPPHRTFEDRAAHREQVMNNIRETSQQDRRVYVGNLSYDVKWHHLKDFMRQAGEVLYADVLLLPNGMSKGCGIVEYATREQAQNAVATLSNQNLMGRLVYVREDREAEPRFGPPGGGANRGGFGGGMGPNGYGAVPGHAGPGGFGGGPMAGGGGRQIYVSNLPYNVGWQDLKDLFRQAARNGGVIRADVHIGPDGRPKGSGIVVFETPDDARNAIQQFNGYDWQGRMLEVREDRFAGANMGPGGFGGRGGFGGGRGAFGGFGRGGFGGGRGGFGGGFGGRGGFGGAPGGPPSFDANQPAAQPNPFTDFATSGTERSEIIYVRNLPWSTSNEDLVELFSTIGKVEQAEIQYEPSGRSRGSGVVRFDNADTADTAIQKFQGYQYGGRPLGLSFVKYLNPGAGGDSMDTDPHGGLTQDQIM

The target in data set [9] is T10, fox-1 ins385_GNEYIMYHQAKQQELP (Caenorhabditis elegans) (UniProt Q10572).
T10 sequence: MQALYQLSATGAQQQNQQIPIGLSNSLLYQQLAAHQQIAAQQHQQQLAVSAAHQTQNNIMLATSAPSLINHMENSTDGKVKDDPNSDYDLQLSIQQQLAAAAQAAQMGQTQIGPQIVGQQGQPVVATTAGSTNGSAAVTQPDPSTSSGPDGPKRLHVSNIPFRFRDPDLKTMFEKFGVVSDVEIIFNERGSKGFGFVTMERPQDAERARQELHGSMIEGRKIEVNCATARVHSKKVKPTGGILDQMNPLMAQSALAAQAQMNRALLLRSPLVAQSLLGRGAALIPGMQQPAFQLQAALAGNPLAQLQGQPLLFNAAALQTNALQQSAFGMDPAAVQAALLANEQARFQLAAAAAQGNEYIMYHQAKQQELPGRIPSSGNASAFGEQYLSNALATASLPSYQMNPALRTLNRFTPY

Data set [10] addresses T11, gw1.219.6.1 (Physcomitrella patens) (UniProt A0A2K1KNA4).
T11 sequence: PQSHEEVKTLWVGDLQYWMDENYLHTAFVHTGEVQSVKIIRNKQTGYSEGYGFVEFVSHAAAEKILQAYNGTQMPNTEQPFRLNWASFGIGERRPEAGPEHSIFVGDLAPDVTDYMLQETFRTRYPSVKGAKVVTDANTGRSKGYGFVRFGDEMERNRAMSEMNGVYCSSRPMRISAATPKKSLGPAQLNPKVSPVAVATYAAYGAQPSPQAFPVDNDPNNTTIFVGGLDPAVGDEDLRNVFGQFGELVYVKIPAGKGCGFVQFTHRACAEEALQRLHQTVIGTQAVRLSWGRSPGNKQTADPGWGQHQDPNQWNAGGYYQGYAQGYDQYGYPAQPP

Data set [11] addresses T12, Phyra93644 G140S (Phytophthora ramorum) (UniProt H3HB24).
T12 sequence: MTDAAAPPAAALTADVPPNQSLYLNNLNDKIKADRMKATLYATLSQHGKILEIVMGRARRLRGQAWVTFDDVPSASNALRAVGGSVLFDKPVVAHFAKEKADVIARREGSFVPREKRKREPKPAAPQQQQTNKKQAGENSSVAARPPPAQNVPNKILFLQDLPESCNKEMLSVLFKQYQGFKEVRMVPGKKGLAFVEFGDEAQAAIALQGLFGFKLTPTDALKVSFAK

The target in data set [12] is T13, gw1.84.45.1 (Physcomitrella patens) (UniProt A0A2K1L0S1).
T13 sequence: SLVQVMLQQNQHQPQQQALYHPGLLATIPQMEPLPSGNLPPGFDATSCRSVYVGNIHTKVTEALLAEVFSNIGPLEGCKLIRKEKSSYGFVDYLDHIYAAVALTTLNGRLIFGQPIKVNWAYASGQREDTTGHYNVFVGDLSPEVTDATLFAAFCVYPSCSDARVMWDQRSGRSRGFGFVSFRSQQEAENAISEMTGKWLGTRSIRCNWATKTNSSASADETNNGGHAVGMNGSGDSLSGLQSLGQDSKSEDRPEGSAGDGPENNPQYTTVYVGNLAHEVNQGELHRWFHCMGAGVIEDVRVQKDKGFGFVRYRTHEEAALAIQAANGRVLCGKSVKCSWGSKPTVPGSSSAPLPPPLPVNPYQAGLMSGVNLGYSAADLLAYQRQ

The target of data set [13] is T14, TVAG_514790 (Trichomonas vaginalis) (UniProt A2GMP0).
T14 sequence: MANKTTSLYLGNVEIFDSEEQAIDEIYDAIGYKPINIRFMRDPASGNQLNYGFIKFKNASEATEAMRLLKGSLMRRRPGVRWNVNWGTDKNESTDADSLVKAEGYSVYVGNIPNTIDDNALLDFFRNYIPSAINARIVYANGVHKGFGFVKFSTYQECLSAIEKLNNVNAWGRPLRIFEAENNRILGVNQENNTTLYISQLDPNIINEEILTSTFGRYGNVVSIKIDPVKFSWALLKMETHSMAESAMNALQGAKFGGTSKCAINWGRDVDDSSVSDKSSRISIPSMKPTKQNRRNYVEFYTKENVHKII

Chain of hnrnpabb (Tetraodon nigroviridis) (Q4SDS6 entry or part of it): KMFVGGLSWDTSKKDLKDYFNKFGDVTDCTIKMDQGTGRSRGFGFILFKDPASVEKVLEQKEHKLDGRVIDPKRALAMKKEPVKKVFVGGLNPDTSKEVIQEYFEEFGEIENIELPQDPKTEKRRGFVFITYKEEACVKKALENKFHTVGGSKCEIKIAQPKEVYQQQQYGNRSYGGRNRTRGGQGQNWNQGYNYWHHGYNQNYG

Take ACGACG [RNAcompete motif RNCMPT00248]: the binding signal (z-score (mean of top ten 7-mers)) with rbm4.3 (Danio rerio) was 10.2.

ACUAAAC [RNAcompete motif RNCMPT00235]: the binding signal (z-score (mean of top ten 7-mers)) in data set [1] was 8.17. For the sequence AGAUAGA [RNAcompete motif RNCMPT00245], the binding signal (z-score (mean of top ten 7-mers)) in [2] is 8.14.

Regarding AUUACAC [RNAcompete motif RNCMPT00234], the binding signal (z-score (mean of top ten 7-mers)) in [3] was 15.8. For AUUCCGA [RNAcompete motif RNCMPT00240], the binding signal (z-score (mean of top ten 7-mers)) in data set [4] is 11.3. As to AUUUUUU [RNAcompete motif RNCMPT00232], in data set [5], the binding signal (z-score (mean of top ten 7-mers)) is 8.88.

Turning to CUUUCCC [RNAcompete motif RNCMPT00239], in the data set with Pcbp1 (Mus musculus), the binding signal (z-score (mean of top ten 7-mers)) is 6.21.

For the sequence CUUUCCC [RNAcompete motif RNCMPT00246], in the data set with pcbp2 (Danio rerio), the binding signal (z-score (mean of top ten 7-mers)) is 6.92. As for GAAGGA [RNAcompete motif RNCMPT00230], the binding signal (z-score (mean of top ten 7-mers)) in data set [6] is 6.23. For the sequence GACGAC [RNAcompete motif RNCMPT00241], in the data set with Rbm45 (Mus musculus), the binding signal (z-score (mean of top ten 7-mers)) was 10.6.

Turning to GAUGGAGU [RNAcompete motif RNCMPT00237], the binding signal (z-score (mean of top ten 7-mers)) in data set [7] is 9.26. Regarding GGAGGA [RNAcompete motif RNCMPT00238], the binding signal (z-score (mean of top ten 7-mers)) in [8] was 6.21.

For the sequence UGCAUG [RNAcompete motif RNCMPT00017], the binding signal (z-score (mean of top ten 7-mers)) in data set [9] is 24.8. Regarding UGUUUUU [RNAcompete motif RNCMPT00229], the binding signal (z-score (mean of top ten 7-mers)) in data set [10] is 6.94. Consider UUGCAC [RNAcompete motif RNCMPT00249], for which the binding signal (z-score (mean of top ten 7-mers)) in data set [11] was 12.

For UUUUUU [RNAcompete motif RNCMPT00228], the binding signal (z-score (mean of top ten 7-mers)) in data set [12] was 12.9.

With UUUUUU [RNAcompete motif RNCMPT00236], the binding signal (z-score (mean of top ten 7-mers)) in data set [13] is 10.3.
